Results: PMC2577338

Columns and labels:
[1] = biological target: S. cerevisiae ribosomes with L10 R7L (S. cerevisiae) (UniProt P41805)
[2] = biological target: S. cerevisiae ribosomes with L10 R7Q (S. cerevisiae) (UniProt P41805)
[3] = biological target: S. cerevisiae ribosomes with L10 Y9N (S. cerevisiae) (UniProt P41805)
[4] = biological target: S. cerevisiae ribosomes with L10 R7P (S. cerevisiae) (UniProt P41805)
[5] = biological target: wild-type S. cerevisiae ribosomes (wild-type L10) (S. cerevisiae) (UniProt P41805)
[6] = biological target: S. cerevisiae ribosomes with L10 Y9C (S. cerevisiae) (UniProt P41805)
[7] = biological target: S. cerevisiae ribosomes with L10 Y11C (S. cerevisiae) (UniProt P41805)

eEF2 (eukaryotic elongation factor 2) (from UniProt P32324 1-842) (natural protein)
Kd [1]: 10.7 nM | Kd [2]: 6.1 nM | Kd [3]: 9.7 nM | Kd [4]: 6.6 nM | Kd [5]: 10.8 nM | Kd [6]: 5.2 nM | Kd [7]: 16.6 nM
